Results on one substance are retold here after PMC4414485.

Assay [1] deals with hERG1a(R56Q).Citrine (human) (UniProt Q12809).
For assay [2] the target is unchanged. This is another data set of the same source.

As for “isolated eag domain of hERG fused to CFP (i-eag.CFP) (domain or fragment)”, in assay [1], the fast deactivation time constant (tau fast) of hERG1a(R56Q) tail currents with co-expressed i-eag in HEK293 cells, whole-cell patch clamp, -120 to -20 mV (slower than hERG1a(R56Q) alone) worked out at 307 ms; the fast deactivation time constant (tau fast) of hERG1a(R56Q) tail currents with co-expressed i-eag in hiPSC-CMs, whole-cell patch clamp, -120 to -20 mV (slower than hERG1a(R56Q) alone) came to 326 ms; the slow deactivation time constant (tau slow) of hERG1a(R56Q) tail currents with co-expressed i-eag in HEK293 cells, whole-cell patch clamp, -120 to -20 mV (slower than hERG1a(R56Q) alone) turned out to be 1780 ms; the slow deactivation time constant (tau slow) of hERG1a(R56Q) tail currents with co-expressed i-eag in hiPSC-CMs, whole-cell patch clamp, -120 to -20 mV (slower than hERG1a(R56Q) alone) amounted to 2340 ms. Besides, in assay [2], the V1/2 of steady-state inactivation of hERG R56Q channels with co-expressed i-eag in HEK293 cells (hERG R56Q alone -13.6 mV, WT hERG -32.2 mV) was -24.7 mV.
